Literature values, collected in patent publication US20100209353A1, “TUMOR TARGETING PROTEIN CONJUGATE AND A METHOD FOR PREPARING THE SAME” (KOREA INSTITUTE OF SCIENCE AND TECHNOLOGY, priority 2009, published 2010).

Conditions: conventional albumin

Question: Which particle size does the source give for albumin here?
Answer: The particle size was 2˜5 nm.
